The values that follow come from article PMC6136348, “In the quest for new targets for pathogen eradication: the adenylosuccinate synthetase from the bacterium Helicobacter pylori” (Journal of Enzyme Inhibition and Medicinal Chemistry, 2018).

The data set deals with the molecule itself. Kind of data set: SEC; Sephacryl S-200 HR column calibrated with marker proteins; 50 mM phosphate buffer pH 6.5, 150 mM NaCl, 2 mM EDTA, 1 mM DTT, +4 °C; sample loaded at ~15 mg/mL total protein (second step of the purification). In general terms: Size exclusion chromatography separates by hydrodynamic size, large species first.

B1: Helicobacter pylori adenylosuccinate synthetase (AdSS) (enzyme, Helicobacter pylori (strain ATCC 26695), UniProt P56137 1-411, looked up)
chain: MADVVVGIQWGDEGKGKIVDRIAKDYDFVVRYQGGHNAGHTIVHKGVKHSLHLMPSGVLYPKCKNIISSAVVVSVKDLCEEISAFEDLENRLFVSDRAHVILPYHAKKDAFKEKSQNIGTTKKGIGPCYEDKMARSGIRMGDLLDDKILEEKLNAHFKAIEPFKKAYDLGENYEKDLMGYFKTYAPKICPFIKDTTSMLIEANQKGEKILLEGAQGTLLDIDLGTYPFVTSSNTTSASACVSTGLNPKAINEVIGITKAYSTRVGNGPFPSEDTTPMGDHLRTKGAEFGTTTKRPRRCGWLDLVALKYACALNGCTQLALMKLDVLDGIDAIKVCVAYERKGERLEIFPSDLKDCVPIYQTFKGWEKSVGVRKLDDLEPNVREYIRFIEKEVGVKIRLISTSPEREDTIFL
notes: Adenylosuccinate synthetase (AdSS, EC 6.3.4.4), product of the purA gene of Helicobacter pylori strain ATCC 26695; amplified from genomic DNA with primers for the 5' and the 3' end of the gene; theoretical monomer mass 45,742.72 Da; Cloned between NdeI and XhoI of pET21b; The printed reverse primer appears to carry a stop codon before the XhoI site, so the vector's C-terminal His tag is probably …
One may read the stoichiometry N as a count of units in the complex or per binding partner. Regarding B1, the “stoichiometry N” value is 2.
